# In US20250327069A1 (CORNELL UNIVERSITY, published 2025):
# T1: Cas8/5 protein of the I-F3b Tn6900 Cascade (Aeromonas salmonicida S44 (Tn6900 …))
# T1 chain: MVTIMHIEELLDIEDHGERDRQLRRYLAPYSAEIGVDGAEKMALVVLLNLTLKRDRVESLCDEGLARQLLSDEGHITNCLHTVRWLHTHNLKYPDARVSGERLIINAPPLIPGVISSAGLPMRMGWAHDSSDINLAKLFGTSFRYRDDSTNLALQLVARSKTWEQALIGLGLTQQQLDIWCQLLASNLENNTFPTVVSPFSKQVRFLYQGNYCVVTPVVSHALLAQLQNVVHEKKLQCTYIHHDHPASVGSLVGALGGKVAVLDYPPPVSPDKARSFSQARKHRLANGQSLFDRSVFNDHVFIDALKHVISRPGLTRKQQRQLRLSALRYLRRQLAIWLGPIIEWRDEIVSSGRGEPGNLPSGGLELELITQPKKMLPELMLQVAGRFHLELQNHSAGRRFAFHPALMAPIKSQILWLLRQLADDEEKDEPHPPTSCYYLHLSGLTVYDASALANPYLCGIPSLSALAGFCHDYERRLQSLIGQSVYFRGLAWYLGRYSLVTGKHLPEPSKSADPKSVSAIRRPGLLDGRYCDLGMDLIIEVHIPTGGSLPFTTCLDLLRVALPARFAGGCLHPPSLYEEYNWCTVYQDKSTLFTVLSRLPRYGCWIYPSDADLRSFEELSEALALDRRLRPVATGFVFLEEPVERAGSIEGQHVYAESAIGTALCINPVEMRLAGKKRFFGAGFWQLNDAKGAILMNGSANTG
# Experiments:
# [1] = tested on: Tn6900 Cascade-TniQ wild type (with TnsABC) (Aeromonas salmonicida S44); test: cell_activity; conditions: CC PAM in transposition screen; about 3-fold
# [2] = tested on: I-F1 PA14 Csy complex with Cas2/3 (Pseudomonas aeruginosa PA14); test: cell_activity; conditions: CC PAM; interference assay, completely depleted
# [3] = tested on: Tn6900 Cascade-TniQ, Cas8/5 A247Q+S248N Cas8/5 A247Q,S248N (Aeromonas salmonicida S44); test: cell_activity; conditions: over half of transposition events at PAMs with -1 C
# [4] = target: the molecule itself; test: cryo-EM structure of the Cascade-TniQ full R-loop complex
# [5] = target: T1, Cas8/5 protein of the I-F3b Tn6900 …; test: as above
# Tn6900 Cascade-TniQ, Cas8/5 A247Q+S248N Cas8/5 A247Q,S248N (Aeromonas salmonicida S44), sequence (chain, as listed by the source A247Q S248N A247Q S248N, chain 2 of 2): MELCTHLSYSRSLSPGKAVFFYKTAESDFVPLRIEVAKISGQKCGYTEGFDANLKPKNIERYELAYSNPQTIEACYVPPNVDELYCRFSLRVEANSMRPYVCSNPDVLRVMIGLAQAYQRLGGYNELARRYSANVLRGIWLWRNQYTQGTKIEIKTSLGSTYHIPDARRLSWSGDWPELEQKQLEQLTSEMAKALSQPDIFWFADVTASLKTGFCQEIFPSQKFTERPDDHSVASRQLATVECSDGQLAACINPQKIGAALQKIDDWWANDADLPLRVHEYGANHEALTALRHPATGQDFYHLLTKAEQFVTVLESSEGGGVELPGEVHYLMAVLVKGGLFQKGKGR
# Tn6900 Cascade-TniQ, Cas8/5 A247Q+S248N Cas8/5 A247Q,S248N (Aeromonas salmonicida S44), sequence (chain, as listed by the source A247Q S248N A247Q S248N, chain 3 of 2): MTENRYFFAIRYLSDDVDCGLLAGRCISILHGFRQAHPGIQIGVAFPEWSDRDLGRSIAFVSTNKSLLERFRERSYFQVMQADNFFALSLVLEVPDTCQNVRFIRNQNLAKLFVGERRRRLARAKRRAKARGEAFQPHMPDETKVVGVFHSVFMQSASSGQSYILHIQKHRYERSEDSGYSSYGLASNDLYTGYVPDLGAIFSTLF
# Tn6900 Cascade-TniQ wild type (with TnsABC) (Aeromonas salmonicida S44), sequence (chain, as listed by the source, chain 2 of 2): as the sequence (chain, as listed by the source A247Q S248N A247Q S248N, chain 2 of 2) above
# Tn6900 Cascade-TniQ wild type (with TnsABC) (Aeromonas salmonicida S44), sequence (chain, as listed by the source, chain 3 of 2): as the sequence (chain, as listed by the source A247Q S248N A247Q S248N, chain 3 of 2) above
molecule,measurement,setting,value
atypical crRNA ffs (60 nt) ; CC-PAM ffs target,binding signal (fold enrichment),[1],3
PA14 crRNA-ffs ; CC-PAM ffs target,enrichment after interference (depletion) (enrichment (depletion)),[2],< 0.005
atypical crRNA ffs (60 nt) ; NN-PAM ffs plasmid pool,share of transposition events at PAMs with -1 C (% of events with C at -1),[3],> 50
"TniQ subunit (monomer) of the TniQ homo-dimer (other, One chain of the dimer, entered to record the self-association of TniQ; also called TniQ.1; TniQ.2; not shown: His6 tag named only in the plasmid name (pCOLADuet-1-His6-tniQ)) MHLLVRPEPFADEALESYFLRLSQENGFERYRIFSGSVQDWLHTTDHAAAGAFPLELSRLNIFHASRSSGLRVRALQLVDRLTDGAPFRLLQLALCHSAISFGNHYKAVHRSGVDIPLSFIRVHQIPCCPDCLRESAYVRQCWHFKPYVGCHRHGGRLIYSCPACGESLNYLASESINHCQCGFDLRTASTVPAQPDEIQLSALAYGCSFESSNPLLAIGSLSARFGALYWYQQRYLSDHEAVRDDRALTKAIGHFTAWPDAFWRELQQMVDDALVRQTKPLNHTDFVDVFGSVVADCRQIPMRNTGQNFILKNLIGFLTDLVARHPQCRVANVGDLLLSAVDAATLLSTSVEQVRRLHHEGFLPLSIRPASRNTVSPHRAVFHLRHVVELRQARMQSHHDHSSTYLPAW",binding result,[4],binds
"TniQ transposition protein of the I-F3b element Tn6900 (Aeromonas salmonicida S44), homo-dimer as associated with Cascade (other, Expressed in E. coli together with Cascade and purified as the Cascade-TniQ complex over Ni-NTA through the His6 tag on TniQ; also called His6-TniQ; TniQ dimer; not shown: His6 tag named only in the plasmid name (pCOLADuet-1-His6-tniQ)) MHLLVRPEPFADEALESYFLRLSQENGFERYRIFSGSVQDWLHTTDHAAAGAFPLELSRLNIFHASRSSGLRVRALQLVDRLTDGAPFRLLQLALCHSAISFGNHYKAVHRSGVDIPLSFIRVHQIPCCPDCLRESAYVRQCWHFKPYVGCHRHGGRLIYSCPACGESLNYLASESINHCQCGFDLRTASTVPAQPDEIQLSALAYGCSFESSNPLLAIGSLSARFGALYWYQQRYLSDHEAVRDDRALTKAIGHFTAWPDAFWRELQQMVDDALVRQTKPLNHTDFVDVFGSVVADCRQIPMRNTGQNFILKNLIGFLTDLVARHPQCRVANVGDLLLSAVDAATLLSTSVEQVRRLHHEGFLPLSIRPASRNTVSPHRAVFHLRHVVELRQARMQSHHDHSSTYLPAW",binding result,[5],binds
